For this data set, the target named is Tri6 (Fusarium graminearum (PH-1; NRRL 31084?), UniProt Q9C1A9 1-218). Kind of data set: EMSA. The note with it: protein: recombinant; tags: His (pDEST17; Methods EMSA text says Tri6-HA recombinant protein); label: 32P 5' end.

B1: Tri6-3 (dsDNA)
DNA 1: GGCAGGCCTGACAGGAGTGATAAAATGTGAGAAGAG
DNA 2: CTCTTCTCACATTTTATCACTCCTGTCAGGCCTGCC
Take B1: the binding result was “binds”.

B2: Tri6-2 (dsDNA)
DNA 1: CTCAGCAGGATGAACAAGGGGTCTGAAAGGCCTGGC
DNA 2: GCCAGGCCTTTCAGACCCCTTGTTCATCCTGCTGAG
For the molecule B2, the binding result is listed as “no binding”.

B3: Tri6-1 (dsDNA)
DNA 1: GGGTCTGAAAGGCCTGGCAGGCCTGACAGGAGTG
DNA 2: CACTCCTGTCAGGCCTGCCAGGCCTTTCAGACCC
As to B3, the binding result is recorded as “no binding”.

The values above are taken from PMC3182926.
